{
  "source": "patent US20160151511A1",
  "about": "“PROTEINS AND PROTEIN CONJUGATES WITH INCREASED HYDROPHOBICITY” (priority 2014, published 2016)",
  "molecules": {"B1": {"name": "5 kDa-PEG-Cys(37)-GLP-1 (peptide)", "peptide": "HAEGTFTSDVSSYLEGQAAKEFIAWLVKGRC", "modifications": "5 kDa cysteine-reactive maleimide-PEG on the added Cys at position 37", "notes": "range 27-56; also called 5 kDa-PEG-GLP-1 (Cys analog); C-terminally PEGylated GLP-1"}},
  "key": {"[1]": {"target": "T1, GLP-1 receptor (Homo sapiens, UniProt P43220)", "T1 construct": "expressed in transfected cells; host or cells: CHO-K1/GLP1/Gα15", "T1 sequence (P43220 24-463, species assumed)": "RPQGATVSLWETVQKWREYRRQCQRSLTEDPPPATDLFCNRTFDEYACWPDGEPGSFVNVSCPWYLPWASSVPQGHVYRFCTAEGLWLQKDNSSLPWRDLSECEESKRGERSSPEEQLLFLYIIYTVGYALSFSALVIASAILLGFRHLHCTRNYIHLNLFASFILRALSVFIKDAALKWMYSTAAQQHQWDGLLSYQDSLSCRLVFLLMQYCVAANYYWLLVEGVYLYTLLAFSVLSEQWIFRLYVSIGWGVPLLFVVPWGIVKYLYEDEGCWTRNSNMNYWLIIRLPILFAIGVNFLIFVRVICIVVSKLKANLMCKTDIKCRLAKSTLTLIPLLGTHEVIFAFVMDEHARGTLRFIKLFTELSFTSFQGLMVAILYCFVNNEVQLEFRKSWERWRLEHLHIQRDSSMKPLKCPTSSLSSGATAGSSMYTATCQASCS", "assay": "Cell-based GLP-1 receptor assay, intracellular calcium mobilization in CHO-K1/GLP1/Gα15 (FlexStation)", "settings": "Calcium-4", "protocol": "The intracellular calcium change was measured by FlexStation. […] A lower EC50 indicates a higher activity."}, "[2]": {"target": "GLP-1 receptor on CHO-K1/GLP1/Gα15 cells (UniProt P43220)", "sequence (P43220 24-463 limits assumed)": "as the sequence (P43220 24-463, species assumed) above", "assay": "cell-based or functional assay"}, "[3]": {"target": "T2, GLP-1 receptor (covalently immobilized on the Biacore biosensor surface) (UniProt P43220 24-145, limits assumed)", "T2 construct": "also called the receptor", "assay": "Biacore (SPR), GLP-1 receptor covalently immobilized, peptide injected"}},
  "data": [
    {"molecule": "5 kDa-PEG-Cys(37)-GLP-1 (HAEGTFTSDVSSYLEGQAAKEFIAWLVKGRC)", "values": [
      {"measurement": "EC50", "setting": "[1]", "value": 0.336, "unit": "µM"}
    ]},
    {"molecule": "B1", "values": [
      {"measurement": "EC50 of intracellular calcium mobilization (Calcium-4, FlexStation RFU)", "setting": "[2]", "value": 0.336, "unit": "µM"},
      {"measurement": "Kd", "setting": "[3]", "value": 1.6, "unit": "µM"}
    ]}
  ]
}
